Consider one molecule from publication PMC5779224, “Autoinhibition of ankyrin-B/G membrane target bindings by intrinsically disordered segments from the tail regions” (eLife, 2017).

Assay [1] concerns the target T1, AnkG 38–855 (AnkG MBD-AI-c protein; MBD + partial AI-c) (rat, UniProt O70511-1 38-855).
T1 construct: numbers count on: rat AnkG NM_001033984.1 (MBD-UPA); also called AnkG WT; source: E. coli BL21 (DE3), purified (Ni2+-NTA, size exclusion)
T1 sequence (looked up): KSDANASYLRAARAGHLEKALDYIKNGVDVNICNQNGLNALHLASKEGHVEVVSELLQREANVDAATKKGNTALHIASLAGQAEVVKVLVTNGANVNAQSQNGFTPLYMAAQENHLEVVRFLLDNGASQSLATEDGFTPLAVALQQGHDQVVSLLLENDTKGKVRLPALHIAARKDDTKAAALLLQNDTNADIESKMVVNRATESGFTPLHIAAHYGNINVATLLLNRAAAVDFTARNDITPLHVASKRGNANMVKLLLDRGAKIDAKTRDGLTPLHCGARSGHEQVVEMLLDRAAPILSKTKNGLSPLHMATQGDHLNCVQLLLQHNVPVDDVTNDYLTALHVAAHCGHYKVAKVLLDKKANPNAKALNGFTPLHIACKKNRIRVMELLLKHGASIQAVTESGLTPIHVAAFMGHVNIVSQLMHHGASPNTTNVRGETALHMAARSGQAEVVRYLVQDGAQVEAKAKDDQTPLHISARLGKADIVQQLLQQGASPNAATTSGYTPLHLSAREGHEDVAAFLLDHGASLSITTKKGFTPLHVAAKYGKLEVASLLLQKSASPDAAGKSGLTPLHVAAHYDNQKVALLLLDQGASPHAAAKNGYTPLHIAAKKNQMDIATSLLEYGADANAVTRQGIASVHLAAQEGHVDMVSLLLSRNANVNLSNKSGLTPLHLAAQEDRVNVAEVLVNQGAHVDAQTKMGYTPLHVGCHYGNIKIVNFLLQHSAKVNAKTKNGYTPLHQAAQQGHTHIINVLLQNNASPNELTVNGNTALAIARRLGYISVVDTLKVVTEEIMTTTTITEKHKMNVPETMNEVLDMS
Description: ITC; VP-ITC MicroCal, 25 °C; proteins in 50 mM Tris-HCl pH 7.8, 1 mM DTT, 1 mM EDTA with 100 mM or 500 mM NaCl as required; who was titrated is not told. The note with it: both partners purified.

The target of assay [2] is T2, AnkB 28–965 (MBD + AI-c + AI-b) (human, UniProt Q01484-2 28-965).
T2 construct: numbers count on: human 220 kDa AnkB NM_020977.3; also called extended MBD containing the entire linker; source: E. coli BL21 (DE3), purified (Ni2+-NTA, size exclusion)
T2 sequence (looked up): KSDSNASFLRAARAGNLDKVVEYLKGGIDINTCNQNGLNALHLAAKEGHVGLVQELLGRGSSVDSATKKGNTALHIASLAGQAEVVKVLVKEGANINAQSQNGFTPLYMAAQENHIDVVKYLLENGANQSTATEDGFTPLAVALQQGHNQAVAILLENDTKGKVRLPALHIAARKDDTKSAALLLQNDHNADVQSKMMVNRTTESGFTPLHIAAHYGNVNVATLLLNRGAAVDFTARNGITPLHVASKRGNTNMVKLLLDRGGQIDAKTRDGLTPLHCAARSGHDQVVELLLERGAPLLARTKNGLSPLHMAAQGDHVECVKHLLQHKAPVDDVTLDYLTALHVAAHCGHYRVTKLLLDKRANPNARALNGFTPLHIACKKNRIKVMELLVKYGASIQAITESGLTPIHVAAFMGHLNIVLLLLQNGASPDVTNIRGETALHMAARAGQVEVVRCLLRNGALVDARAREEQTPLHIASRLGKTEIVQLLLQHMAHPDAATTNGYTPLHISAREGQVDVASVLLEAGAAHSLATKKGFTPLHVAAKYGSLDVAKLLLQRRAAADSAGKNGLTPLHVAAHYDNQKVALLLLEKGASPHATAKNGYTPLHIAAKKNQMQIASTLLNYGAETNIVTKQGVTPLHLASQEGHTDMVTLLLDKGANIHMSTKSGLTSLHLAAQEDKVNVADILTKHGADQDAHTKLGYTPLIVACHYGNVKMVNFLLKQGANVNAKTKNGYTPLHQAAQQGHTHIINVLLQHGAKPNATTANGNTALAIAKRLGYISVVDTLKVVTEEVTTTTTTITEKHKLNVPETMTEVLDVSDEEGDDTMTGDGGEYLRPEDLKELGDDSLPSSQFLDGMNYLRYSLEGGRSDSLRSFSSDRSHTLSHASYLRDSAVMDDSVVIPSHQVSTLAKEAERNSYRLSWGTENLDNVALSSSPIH
The description is as above. The note with it: both partners purified.

B1: Nav1.2 (aa 1035–1129) (domain or fragment, mouse, UniProt B1AWN6 1035-1129, looked up)
chain: KALDEIKPLEDLNNKKDSCISNHTTIEIGKDLNYLKDGNGTTSGIGSSVEKYVVDESDYMSFINNPSLTVTVPIAVGESDFENLNTEEFSSESDM
notes: source: E. coli BL21 (DE3), purified (Ni2+-NTA, size exclusion)
Take B1: the binding result in assay [1] and in assay [2] was “binds” in each case.
